These results are taken from patent publication US11180789B2, “Method for bioconversion of mogroside extracts into siamenoside I” (National Taiwan University, priority 2019, dated 2021).

For series [1] the following is noted: relative to 5% sucrose in water; cited from earlier work.
In series [2] the target is T1, recombinant ScExg1 (rScExg1), Exg1p of Saccharomyces cerevisiae (Saccharomyces cerevisiae, UniProt P23776).
T1 sequence (P23776 41-448): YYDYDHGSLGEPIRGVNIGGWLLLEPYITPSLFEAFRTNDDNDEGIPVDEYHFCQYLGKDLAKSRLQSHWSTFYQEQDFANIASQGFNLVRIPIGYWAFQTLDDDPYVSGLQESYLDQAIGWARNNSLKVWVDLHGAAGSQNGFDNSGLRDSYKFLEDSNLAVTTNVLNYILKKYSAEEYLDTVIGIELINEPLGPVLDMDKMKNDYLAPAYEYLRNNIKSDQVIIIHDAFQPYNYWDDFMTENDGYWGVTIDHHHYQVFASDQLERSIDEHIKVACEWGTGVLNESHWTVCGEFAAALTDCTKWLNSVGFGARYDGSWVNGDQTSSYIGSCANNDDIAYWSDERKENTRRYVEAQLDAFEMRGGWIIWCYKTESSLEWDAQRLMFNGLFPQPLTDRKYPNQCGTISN
In words: Enzyme kinetics of recombinant ScExg1 on oNPG and pNPG substrates (β-glucosidase activity). Format: biochemical. As to conditions: pNP/oNP release at 405 nm. The protocol: The optimal conditions for β-glucosidase activity were determined. The optimum pH was obtained by monitoring enzyme activity at a range of pH levels (from pH 3 to pH 9) in the reaction buffer. Incubation was carried out at 60° C. for 30 min. To analyze enzyme stability, the same buffer system and pH range were used, however, the reactions were performed at 4° C. for 1 h. The optimum temperature was determined in 20 mM acetate buffer at pH 5 in a range of temperatures from 20° C. to 90° C. For temperature stability analysis, β-glucosidase was extracted and activity was monitored following 1 h incubation in 20 mM acetate buffer, pH 5. […] The f-glucosidase activity was determined by measuring the levels of p-nitrophenol (pNP) or o-nitrophenol (oNP) released from pNPG or oNPG after the glucose was hydrolyzed by glucosidase. The released pNP or oNP was detected at a wavelength of 405 nm and calibrated with standard curves. […]
(§1) To evaluate the preferred pH, preferred temperature and hydrolyzing capability of rDbExg1, we used pNPG substrates and compared the results with ScExg1. rDbExg1 retained half of its activity over a pH range of 3.0 to 7.0 and was stable at pH 5.0-7.0. […] The Michaelis constant (Km) and maximum velocity (Vmax) of rDbExg1 and rScExg1 were also compared and calculated (Table 3). […]

Substrate in series [3]: O=[N+]([O-])c1ccccc1O[C@@H]1O[C@H](CO)[C@@H](O)[C@H](O)[C@H]1O
The description is as above. Format: biochemical, Saccharomyces cerevisiae. As to conditions: other: rScExg1; pNP/oNP release at 405 nm. The protocol: (§2) The optimal conditions for β-glucosidase activity were determined. The optimum pH was obtained by monitoring enzyme activity at a range of pH levels (from pH 3 to pH 9) in the reaction buffer. Incubation was carried out at 60° C. for 30 min. To analyze enzyme stability, the same buffer system and pH range were used, however, the reactions were performed at 4° C. for 1 h. The optimum temperature was determined in 20 mM acetate buffer at pH 5 in a range of temperatures from 20° C. to 90° C. For temperature stability analysis, β-glucosidase was extracted and activity was monitored following 1 h incubation in 20 mM acetate buffer, pH 5. […] The enzyme and substrate mixture were incubated under optimum enzymatic reactions conditions of 60° C., pH 5. The f-glucosidase activity was determined by measuring the levels of p-nitrophenol (pNP) or o-nitrophenol (oNP) released from pNPG or oNPG after the glucose was hydrolyzed by glucosidase. The released pNP or oNP was detected at a wavelength of 405 nm and calibrated with standard curves. Mogroside conversion was stopped by the addition of one volume of pure methanol at specific time points. The converted products were then purified for HPLC-MS/MS analysis.
(§3) Because mogrosides are known to be hydrolyzed by Exg1p in S. cerevisiae (ScExg1), we hypothesized that an Exg1-like glucan-β-glucosidase in D. bruxellensis (DbExg1) might be responsible for the observed mogroside conversion. To test this hypothesis, DbExg1 was cloned with a galactose-induced promoter sequence and six-histidine tag (6×His) at the C-terminus of the gene. The plasmids were transformed and expressed in S. cerevisiae as previously described. […] The recombinant DbExg1 (termed rDbExg1) was purified by Ni^2+-affinity chromatography (data not shown).
(§4) To evaluate the preferred pH, preferred temperature and hydrolyzing capability of rDbExg1, we used pNPG substrates and compared the results with ScExg1. rDbExg1 retained half of its activity over a pH range of 3.0 to 7.0 and was stable at pH 5.0-7.0. The optimum pH was 5.0 in a sodium phosphate buffer system (FIG. 3C). […] The optimum temperature for rDbExg1 was 60° C. However, the enzyme only retained 40% of its activity after incubation at 60° C. for 30 min. […] (FIG. 3B). Both ScExg1 and rDbExg1 were stable at temperatures below 50° C. (FIGS. 3B and D). The Michaelis constant (Km) and maximum velocity (Vmax) of rDbExg1 and rScExg1 were also compared and calculated (Table 3).
(§5) Table 3: Kinetic parameters of recombinant DbExg1 and ScExg1 proteins on oNPG and pNPG substrates (4) Enzymatic Hydrolysis of Mogrosides

Substrate in series [4]: O=[N+]([O-])c1ccc(O[C@@H]2O[C@H](CO)[C@@H](O)[C@H](O)[C@H]2O)cc1
The description is as above. The series is classed as biochemical, Saccharomyces cerevisiae. As to conditions: other: rScExg1; pNP/oNP release at 405 nm. The protocol:
as §2, §3, §4, §5

Series [5] is described as follows: β-Glucosidase activity, pH and temperature optimum and stability of recombinant Exg1 proteins on pNPG. Format: biochemical. The method, then:
as §2

Substrate in series [6]: O=[N+]([O-])c1ccc(O[C@@H]2O[C@H](CO)[C@@H](O)[C@H](O)[C@H]2O)cc1
Nature of the series: Enzyme kinetics of recombinant DbExg1 on oNPG and pNPG substrates (β-glucosidase activity). As to conditions: other: rDbExg1, substrate 10 mM, acetate buffer, pH 5, 60° C., pNP/oNP release at 405 nm. The series is classed as biochemical, Dekkera bruxellensis.
Excerpt: Exg1-like β-glucosidase from Dekkera bruxellensis (DbExg1) was cloned with the Gateway cloning system. Briefly, the coding region of DbExg1 was first amplified by PCR. The forward primer was
underline indicates gene coding region). Genomic DNA extracted from D. bruxellensis was used as the template. Yeast expression vectors (pYES-DEST52) were further introduced to generate galactose-inducible plasmids carrying the correct DbExg1 sequence. The yeast vectors were then amplified and transformed into Exg1-deleted S. cerevisiae (exg1Δ mutants) for the galactose-induced DbExg1 protein expression assay. DbExg1 gene was also integrated into (exg1Δ mutants) with a GPD promoter. For protein purification, the culture media was concentrated with a 30 kDa MWCO (molecular weight cutoff) ultrafiltration membrane (Vivaspin 20, GE Co., Taipei, Taiwan). The extracellular protein concentrates were purified by Ni^2+-affinity chromatography. Protein homogeneity in each fraction was assessed by SDS-PAGE and silver staining.
as §2, with “analysis. […]” for “analysis.”
as §1

Substrate in series [7]: O=[N+]([O-])c1ccccc1O[C@@H]1O[C@H](CO)[C@@H](O)[C@H](O)[C@H]1O
Nature of the series: purified protein, by the assay type. As to conditions: other: rDbExg1, substrate 10 mM, acetate buffer, pH 5, 60° C., pNP/oNP release at 405 nm.

Consider `C[C@H](CC[C@@H](O[C@@H]1O[C@H](CO)[C@@H](O)[C@H](O)[C@H]1O[C@@H]1O[C@H](CO)[C@@H](O)[C@H](O)[C@H]1O)C(C)(C)O)[C@H]1CC[C@@]2(C)[C@H]3CC=C4[C@@H](CC[C@H](O[C@@H]5O[C@H](CO[C@@H]6O[C@H](CO)[C@@H](O)[C@H](O)[C@H]6O)[C@@H](O)[C@H](O)[C@H]5O)C4(C)C)[C@]3(C)[C@H](O)C[C@]12C` [MG IV, mogroside IV], for which the “times sweeter than 5% sucrose” value in series [1] is reported as 465 times.

As to `C[C@H](CC[C@@H](O[C@@H]1O[C@H](CO[C@@H]2O[C@H](CO)[C@@H](O)[C@H](O)[C@H]2O)[C@@H](O)[C@H](O)[C@H]1O[C@@H]1O[C@H](CO)[C@@H](O)[C@H](O)[C@H]1O)C(C)(C)O)[C@H]1CC[C@@]2(C)[C@@H]3CC=C4[C@@H](CC[C@H](O[C@@H]5O[C@H](CO[C@@H]6O[C@H](CO)[C@@H](O)[C@H](O)[C@H]6O)[C@@H](O)[C@H](O)[C@H]5O)C4(C)C)[C@]3(C)[C@H](O)C[C@]12C` [MG V, mogroside V], in series [1], the “times sweeter than 5% sucrose” value is reported as 392 times.

With `C[C@H](CC[C@@H](O[C@@H]1O[C@H](CO)[C@@H](O)[C@H](O)[C@H]1O[C@@H]1O[C@H](CO)[C@@H](O)[C@H](O)[C@H]1O)C(C)(C)O)[C@H]1CC[C@@]2(C)[C@@H]3CC=C4[C@@H](CC[C@H](O[C@@H]5O[C@H](CO)[C@@H](O)[C@H](O)[C@H]5O)C4(C)C)[C@]3(C)[C@H](O)C[C@]12C` [MG IIIE, mogroside III E], in series [1], the “times sweeter than 5% sucrose” value is recorded as “less sweet”.

As for `C[C@H](CC[C@@H](O[C@@H]1O[C@H](CO[C@@H]2O[C@H](CO)[C@@H](O)[C@H](O)[C@H]2O)[C@@H](O)[C@H](O)[C@H]1O[C@@H]1O[C@H](CO)[C@@H](O)[C@H](O)[C@H]1O)C(C)(C)O)[C@H]1CC[C@@]2(C)[C@@H]3CC=C4[C@@H](CC[C@H](O[C@@H]5O[C@H](CO)[C@@H](O)[C@H](O)[C@H]5O)C4(C)C)[C@]3(C)[C@H](O)C[C@]12C` [SI, siamenoside I], in series [1], the “times sweeter than 5% sucrose” value is given as 563 times.

As a reminder, the Vmax is the rate approached at saturating substrate. With `O=[N+]([O-])c1ccccc1O[C@@H]1O[C@H](CO)[C@@H](O)[C@H](O)[C@H]1O` [o NPG, o-nitrophenol β-D-glucoside], in series [2], the Kcat was found to be 0.458 ± 0.012 s⁻¹ and the Vmax came to 9.16 ± 0.247 µmol/min/mg.

B1: recombinant ScExg1 (rScExg1), Exg1p of Saccharomyces cerevisiae (Saccharomyces cerevisiae S288C) (protein)
chain: YYDYDHGSLGEPIRGVNIGGWLLLEPYITPSLFEAFRTNDDNDEGIPVDEYHFCQYLGKDLAKSRLQSHWSTFYQEQDFANIASQGFNLVRIPIGYWAFQTLDDDPYVSGLQESYLDQAIGWARNNSLKVWVDLHGAAGSQNGFDNSGLRDSYKFLEDSNLAVTTNVLNYILKKYSAEEYLDTVIGIELINEPLGPVLDMDKMKNDYLAPAYEYLRNNIKSDQVIIIHDAFQPYNYWDDFMTENDGYWGVTIDHHHYQVFASDQLERSIDEHIKVACEWGTGVLNESHWTVCGEFAAALTDCTKWLNSVGFGARYDGSWVNGDQTSSYIGSCANNDDIAYWSDERKENTRRYVEAQLDAFEMRGGWIIWCYKTESSLEWDAQRLMFNGLFPQPLTDRKYPNQCGTISN
Usually Km stands for the concentration of substrate that gives half-maximal velocity. For orientation: kcat means the maximal rate divided by the concentration of active sites. Broadly, the kcat/Km is the second-order rate constant that governs catalysis at low substrate concentration. Turning to B1, the Km in series [3] was determined as 840 ± 42 µM. In series [4], the Km is 865 ± 3 µM, the Vmax amounted to 11.7 µmol/min/mg, the kcat was 0.587 ± 0.018 s⁻¹ and the kcat/Km was 679 ± 5 M⁻¹ s⁻¹. Besides, the optimum temperature in series [5] was 50 °C.

B2: recombinant DbExg1 (rDbExg1), Exg1-like β-glucosidase from Dekkera bruxellensis, C-terminal 6xHis (Brettanomyces bruxellensis) (protein)
chain: APIILKKRDWDYTKDKIHGVNIGGWLVLEPYITPSLFETFGDDAPVDEYHYTQQLGKEEASKRLQEHWANWITEKDFEYIANLGLNMVRIPIGYWAFELQDNDPYVQGQQAYLDKALGWAEKNGLKVWIDLHGVPGSQNGFDNSGLRDQIDWQTGSGNVDFTLNVLKEMIEKYSDSDYSDTIIGIELLNEPLGSSLNMDELKVFYSSGYELVRDQDASVPVIIQDAFQSDYYWDDFLNTEQDTNIYGVVVDHHHYQVFSTGELQRDMDTRIQTACNWGKQEGGEYHWNVCGEFSAALTDCAKWLNGLGRGARYDSSYGGGAYVGSCDDLYTYDEDYWNNSDVIKQYRQYVEAQMDAFENGKMGGWVFWCWKTESAVEWDFQRLAGLNVIPQPLDDRLYPNQCSF
Turning to B2, in series [6], the Km is 734 ± 2 µM, the Vmax amounted to 9.27 µmol/min/mg, the catalytic constant (kcat) turned out to be 0.464 ± 0.006 s⁻¹ and the kcat/Km was determined as 632 ± 7 M⁻¹ s⁻¹. Also, in series [7], the Km came out at 781 ± 4 µM, the Vmax turned out to be 10.4 µmol/min/mg, the kcat is 0.518 s⁻¹ and the kcat/Km was 663 M⁻¹ s⁻¹.
